# Measurements published in the DeepSol protein solubility set.
# Test: soluble on expression in E. coli; label from the status in PepcDB or PDB records
row,Sequence,soluble on expression in E. coli
1,MGSDKIHHHHHHMTKPNQDAIGMLPFKQSTVSLQVQEHYKTPMLLLGYQQRWCADLTPVKVCEKSRRIGLSWGEAADSALFAASQKGMDTWYIGYNKDMAQEFIRDCADWAKAYGLAAGEIEETEEIFKEGDEEKAILAYVIRFSSGWRITALSSRPSNLRGKQGRVIIDEAAFHDDLPELLKAAMALLMWGGQVHIISTHNGVDNPFNELVNEVRAGKKPYSLHTITFDDAIKDGLYQRICLRLGRTWSQQAQDEWVAEIRASYGDAAAEELDCIPRNSGGAWLTRALIESRMNADTPRLCLEKKDEFALQPEPIRNREIAQWCDENLYPVLTALPEKQRHFLGMDFARSGDLSVIAIGQEQSDLCLKNVLLLELSNIPFAQQEQIYFYIGDRLPRFSKAANDARGNGQSLSEKAFDRYGAIVEGVMLSESWYREHTAPFKAALEDDTLFDIVKNDDVLADLRAFQVVKGIPRLPDKRTVGQNKTKRHGDAAIAYLLLHYAYRTDQSFEINFRSTGTRTTTQLFNNNSFERVRTGRGFGSIRGGNDFRGY,not soluble
2,MGSDKIHHHHHHMLQFQPPGFGHKLIHTSLGAMVYYTQTNTPWAFADTEDLPPLLFLHNFGGGASAYEWSKVYPAFASNYHILAPDLIGWGESAHPVRDYKIRDYLSTIAEFIIETCRQPVTVVASSLTAAFAIRLAIVQPNLFKALFLVSPSGFDDFGQGAGRRLPLSVINTPLLDNFIYMLGAENEIAVRNFLQSFLFAKSERVSQEIVDAYLTSAQQPNAKFSALAFLRGDLYFDLSLYIQQLTIPTVMFWGEKAQFTNIKLGQRLANLNQRAIQDFYAIADAGILPHLEIPEVVIGLLQRYLR,not soluble
3,MYSGFTREKSDLRTEDVEITKEPFTLLIMGIEDYATDGQNGRTDSLMFATVNPKTQKISLMSIPRDSRVPIVGKNKEDKINAAHAYGGEEMAIKTVEGFLKVPVDHYVKIDFQGFKGIVDAVGGVTVDVPFDFWERSDVDYYKKIQFKQGQQELNGEEALAYVRMRKQDPNGDYGRAARQRQLLAAVAQKLNSTSTVFKIKDLTSVVGKYIKTDIPISDGLALYKKLSGFDPSTIQTLKLEGEDKKIGGIYYFLPDPNGVEAVRNEIKKELGEKVTTQENSTTKTESTPSSNSNSNEKAKKETNRNQNKTPTDPPPSTNAHAEWIMRNQQLEHHHHHH,soluble
4,MTLNAFIEKLSTQPELIEFTETMAVIESHYEFTPTEFANGNTVNLADQNNGSCKIFAFALLNQLSVDQTLACFGQYYRQDVLENPQGDDHQNIRNFMVTGWAGVQFKAQALQAK,not soluble
5,MKRVRKAIIPAAGLGTRFLPATKAMPKEMLPIVDKPTIQYIVEEAVKSGIEDIIIVTGKTKRSIEDHFDNAFELEQNLLEKKKYELLEKVQASSKMVDIHYIRQKEPKGLGHAVWCARKFIGDEPFAVLLGDDIVQAEKPCLRQLIEEYDKTLSSVIGVQTVPEDETHRYGIIDPLEQEGRRYQVRNFVEKPAAGTAPSNLAIMGRYVLTPEIFMFLEQQHVGAGGEIQLTDAIQSLNEIQRVFAYDFEGKRYDVGEKLGFVQTTIEMALQHPELRDDMVTMMKKILEEQTNQES,not soluble
6,MTTDYDFWLFDLDGTLVDIEPAYPRKVMGAVGDRLGVEFTDRERDALWYGFGGTRSRTLAERNVDQQEFWRLFHEEEDPIARAEATYLYDDAEQFLATLDTPVGLVTHCQQYLTEPVLDHLDITDWFETVVCCDDDIGWKPDPKPVELAMREMDVWYNGHHGVLAGDNPSDIGAAWNAGLDGVHVGRRSPTETGRCVRGDRRVASLLDLSSSQGR,not soluble
7,RGSHHHHHHGSAVQVTFTVQKGSDPKKLVLDIKYTRPGDSLAEVELRQHGSEEWEPLTKKGNVWEVKSSKPLVGPFNFRFMSKGGMRNVFDEVIPTAFSIGKTYKPEE,soluble
8,MNRLDQLGIRINLICNVFDKWIGQQDLNYNLFTVLYTLATEGSRTQKHIGEEWSLPKQTVSGVCKTLAGQGLIEWQEGEQDRRERLLSLTEKGKVHAAPLTENAQEFSDKVFSTFGDKRTTRLFADLDALAEVMEKTISENKK,not soluble
9,MSLGGLCPRCRGRGWCGRDRCPFLDALNEVRARLSSRNVDGYTVTAHVSWRGYPRVIAAPGVGEHRTPDEGGVLADLPYEEALKTRALTFRRYRGKRDVRNPPDLSDPEIESSISVRPVESTLQVRRRLSGASRTTPFIGPLVEGELELDGTPKVPRDLERYHEDDVKAEEAVVGLYRRGYDESYIARALSLGLLGRDRRMVPTRWSVAAVDSMVSEHLAREVRDLPVSSEYRVLSGEVFGNEMWVILRPEPLSYELVEAYEPGAPWSDRTRIAVLRDSEVKDCKEPRETGGAYFAARLAALEWCSELGKQHGITVIRIVRKEYSAPLGAWVIREAVRRAEEVFSTDDPREVWEFLREKLDDPVGEAALKVIKRGRQRTLDTFLEGHHHHHH,not soluble
10,GMMNKPAPRELEVIRSTYITPHMLRITLGGAGLAGFPADQESAYIKLLFPQAGERPLMRTYTIRQQRDDEIDVDFVLHDTDGPASSWAKTAQVGELIQIGGPGLKKLINFEADWFLLAGDMTALPAISVNLAKLPNNAVGYAVIEVLSEADIQPLVHPEHVELHWVINPEADPEGRPLVERIAQLPWLAGEPAVWIACEFNSMRALRRHFKQAHALPKSHFYTSSYWKIGCNEGEHKLVKQEDEQLENGASV,soluble
11,MSEANSNSEFQTFIEQENQKAAIQAAISKLTETCWDKCVGKPGSKLDRAESECIANCAERFLDSSSFIMQRLMKKQ,soluble
12,MGSDKIHHHHHHHVETIKNTFLNPKSNKVLVVAHRGNWRSAPENSTAAIDSAIAMKVDIVEIDIQKTKDGQLILMHDNTLDRTTTGKGEIKNWTLADIKKLKLKDKDGKVTNYVVPTLEEALLTAKGKIMVNLDKAYDIFDDVYAILEKTETQNQVIMKGGQPIETVKREFGSYLDKVLYMPVIDLGNKEAEKIITDYLKELRPAAFEIIYSDPKNPLPPKIKQLLFKKSLIWYNTLWGSLAGNHDDNLALTDPEKSYGYLIEQLGARILQTDQPAYLLDYLRKKGWHN,not soluble
13,MGSDKIHHHHHHMFIENYCPISADRISFTRQQGSDFAKQVADDFNPLHNIDAKRFCVPGDLLFSIIIAKSGLHKNMTFDFSGMVSDDVHLTFPQEIDESFDIKDDKDKTCLSVHVSGDKTHESVLINALTKAYVDFSGHTFPDILVKLMADNSVMINPARPMVMYQSMSIDLHTLTAETVTLKLAKTSLSIEGKRGDAWLEFDLLSNDKVIGHGKKHMLLSGLRTYEQETIDAMVNQYRDSKKNYQA,not soluble
14,MSIFQSFKSVAAAIAVCAGIFTGFSANAQSVDDIVKRGSVKIGVLVGAPPFGSVDAQGNPVGYDADVATLIGKYLGVPVTMVQLTPPSRIPALESGKVDFLVATLAPTPERAKAVMFTNPYSAFQVGIYSHKDTKIEKWEDLKGMTVGVNRGSSVEREFVNREKELGLTILRFDDDATTMQALFSGQVQAIAGPDAQANAAIKLRGDTTTEVKFFFSIQPNSMTVRKDAVDLHQWLNNTIYYIKQNGELDAIARKWVGTPLPVLPTF,not soluble
15,IQQANEEAVTRIIQSKPILVGFDKAINVMPDMTETTILHAGPPITYENMCGPMKGAVQGALVFEGLAKDLADADRVARSGAITFSPCHEHDAVGSMAGVTSPNMYVHIIKNETYGNTAFTNLSEQLAKVLRFGANDQSVVDRLIWMRDVLGPLLHDAMTFCPEGIDLRLMLSQALHMGDECHNRNVAGSTLLVQALTPYMVQTDFSREQLKEVFEFLGSSDYFSGPTWMGAAKCALDAGHNVENSTIVTTMCRNGVEFGIRVSGIGGNHWFTGPAQRVIGPMFAGYTQEDAGLDMGDSAITETYGVGGFAMAAAPAIVPLVGGTVAEALNYSKEMLEITTKENPNVTIPVLDFMGIPTGIDVLKVLETGMLPVINTAIAHKEPGIGMIGAGLTNPPANVFNEALKALVATIN,not soluble
16,MQSLMNNPVTRSNAPCLIVGIGYTTGSVRDLAQRAADYTPPLGDNATADERRQFGQADRFADFIDSELTAFLESRYTLNRNETAVFGHSFGALFGLYSLLSHRCFRRHWLVSPSIWWHNRRILDFMPSENRLDGIDACLNIGALERSSGCKRREERDMAGQAEQMAAELDRRGTAVFFREYPNADHGNVPFYSLTDCVEYLRE,not soluble
17,MGHHHHHHSHMRSVSYVQRVALEFSGSLFPHAICLGDVDNDTLNELVVGDTSGKVSVYKNDDSRPWLTCSCQGMLTCVGVGDVCNKGKNLLVAVSAEGWFHLFDLTPAKVLDASGHHETLIGEEQRPVFKQHIPANTKVMLISDIDGDGCRELVVGYTDRVVRAFRWEELGEGPEHLTGQLVSLKKWMLEGHHDKPGITQGTGIAIVNK,not soluble
18,MSTATKVGAVIITMGNRPDELRALLDSVAKQDGDRVEVVVVGNGSPVPDVPAGVRTVELPENLGIPGGRNVGIEAFGPGGTDVDILLFLDDDGLLAHHDTAELCRQAFTADPELGIISFRIADPDTGETQRRHVPRLRASDPMRSSRVTTFLGGANAVRTKVLAEVGGLPDEFFYAHEETDLAWRALDAGWMIDYRSDMVLYHPTTAPSRHAVYHRMVARNRVWLARRNLPAPLVPVYLGVWLLLTLARRPSGPALKAWFGGFKEGWTSPCGPRRPMKWRTVWRLTRLGRPPVILEHHHHHH,not soluble
19,MGSDKIHHHHHHMKPITVLVSVDSNSVLMGARHFLNYFRDLVKEHNLEDTVDVLETGSMGIYPEGVIVSVLPDGVFYVVRNELDVRRIFEEHILKGRRVLDLEIPESQIKGTVEVEKVAEETRIVLKNVGEIDPTRIEEYIARDGYFALAKALQMEPGEIIEEIKRSGLRGRGGAGFPTGLKWEFTYKASADQKYVLCNADEGEPGTFKDRLIMEGDPHSLIEGMIIAGYAVGATKGYIYIRGEYHSSIEILKKAVEQAYEYGFLGENILGSGFNFDLKIRLGAGAYVAGEETALIESIEGKPARPRLKPPYPPTFGLFGKPTVVNNVETFVNVPRIIMNGAEWFKKFGTESSPGTKVFSLVGNVVRKGIVEVPMGVTVRDLIFKFGGGIEGGRKLKVVQTGGSAGTFIGPDKLDVPLDFDSYAKYGVSLGSGVILVADETHCVVDLALTVMRFFEHESCGKCTPCREGTRMIVNILERISRGEGKKEDLDTLREIARNAGETSFCGLGQSIPVPLLSIVDNFEEEFKAHIGADKCPVGVCEFKKKKEKKKIGVRKP,not soluble
20,MIRIAYVSTYPPRRCGLATFTEHLRQSIDGVRGPSDGDRVIVLYNESDGDDAYRNDPAYWPLPAQNRAAYAEMAKRVNESDIDVVLLQHEFGIFGGEAGEYILDFIAALNKPLVTTFHTVFADPPLPYRPIQGKIAAASDAIIVMNRQAIPYLVKAFGLPEEKIVYIPHGAPGPSSENRDSLRRRLGFSGRKVMLTFGLLSRGKGIESVLAALPGVVRKVPEALYVIAGQTHPEVKKREGEAYREELKSLIHRLGLEHHVHMEDRYFSEEELIDYLTACDLYVTPYPGMQQITSGTLAYAVGVGRPVVSTPYEHARDLLRGCEELLLPYGDTTAWEERLGQLLADEAALKRWEEKVRQIGANTHWPRVGEQHVALFARMCAAKRGEVKTIGTVSH,not soluble
21,VLDDEEKIVDLSSSIEKFLDFAPGSLAGVALSEILHPEDYLHFKTALDRQKPHEAVLMFYSRFKTGDGSWLNVEWSLSIKRKPMTDQYEYTIILRKTDNPLF,not soluble
